# Measured values from patent publication US20230321192A1 (published 2023).
# Residue numbers refer to the chain shown, from its start.
# B1: mA7 (ligand)
# chain: YFGRLHCTTAVIRNINDQVLFVDKRQPVFEDMTDIDQSASEPQTRLIIYAYGDNRVRGKAVTLSVKDSKMSTLSCKNKIISFEEMDPPENIDDIQSDLIFFQKRVPGHNKMEFESSLYEGHFLACQKEDDAFKLILKKKDENGDKSVMFTLTNLHQS
# notes: Murine DR-IL-18 variant; recombinant with C-terminal hexahistidine tag in SPR; fusion and tag not written
# B2: mC1 (ligand)
# chain: B1 chain with Y1N, G52V, N54R, V56L, R104K
# notes: as for B1
# B3: mE8 (ligand)
# chain: B1 chain with Y1N, A50V, G52T, N54G, V56R, R104K, N109D
# notes: as for B1
# B4: mCS2 (ligand)
# chain: B1 chain with Y1H, N54S, V56A
# notes: Murine DR-IL-18 consensus variant; recombinant with C-terminal hexahistidine tag in SPR; fusion and tag not written
# B5: Human IL-18BP (amino acids 31-194) (receptor)
# chain: TPVSQTTTAATASVRSTKDPCPSQPPVFPAAKQCPALEVTWPEVEVPLNGTLSLSCVACSRFPNFSILYWLGNGSFIEHLPGRLWEGSTSRERGSTGTQLCKALVLEQLTPALHSTNFSCVLVDPEQVVQRHVVLAQLWAGLRATLPPTQEALPSSHSSPQQQGGLNDIFEAQKIEWHEHHHHHH
# modifications: biotin on the AviTag (BirA ligase) where used biotinylated
# B6: hA8 (ligand)
# chain: YFGKLESRLSVIRNLNDQVLFIDQGNRPLFEDMTDSDCRDNAPRTIFIISKYKDKQPRAQAVTISVKCEKISTLSCENKIISFKEMNPPDNIKDTKSDIIFFQRDVPGHKHKMQFESSSYEGYFLACEKERDLFKLILKKEDELGDRSIMFTIQNED
# notes: Human DR-IL-18 variant; display fusion not written
# B7: hCS2 (ligand)
# chain: B6 chain with R8K, K51T, Q60K
# notes: Human DR-IL-18 consensus variant; E. coli recombinant with C-terminal hexahistidine tag in SPR; fusion and tag not written
# Key:
# [1] = biological target: T1, Mouse IL-18BP (amino acids 31-194) (mouse, UniProt Q9Z0M9 29-193, biotin on the AviTag (BirA ligase)); experiment: SPR; end of the range tied to mA7 by Table 9
# T1 construct: Secreted from Expi293 cells (H7 signal peptide); also called mIL-18BP
# T1 sequence: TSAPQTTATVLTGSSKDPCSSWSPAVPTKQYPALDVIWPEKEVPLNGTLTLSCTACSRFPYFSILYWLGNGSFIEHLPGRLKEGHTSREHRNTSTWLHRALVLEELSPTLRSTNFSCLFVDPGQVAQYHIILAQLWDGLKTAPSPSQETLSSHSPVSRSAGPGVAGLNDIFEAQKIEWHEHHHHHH
# [2] = biological target: T1, Mouse IL-18BP (amino acids 31-194); experiment: SPR; end of the range tied to mC1 by Table 9
# [3] = biological target: T2, Mouse IL-18Rα ectodomain (amino acids 19-329) (mouse, UniProt Q61098 19-329, biotin on the AviTag (BirA ligase)); experiment: SPR; end of the range tied to mE8 by Table 9
# T2 construct: range 19-329; Secreted from Expi293 cells (H7 signal peptide); also called mIL-18Rα; Ra
# T2 sequence: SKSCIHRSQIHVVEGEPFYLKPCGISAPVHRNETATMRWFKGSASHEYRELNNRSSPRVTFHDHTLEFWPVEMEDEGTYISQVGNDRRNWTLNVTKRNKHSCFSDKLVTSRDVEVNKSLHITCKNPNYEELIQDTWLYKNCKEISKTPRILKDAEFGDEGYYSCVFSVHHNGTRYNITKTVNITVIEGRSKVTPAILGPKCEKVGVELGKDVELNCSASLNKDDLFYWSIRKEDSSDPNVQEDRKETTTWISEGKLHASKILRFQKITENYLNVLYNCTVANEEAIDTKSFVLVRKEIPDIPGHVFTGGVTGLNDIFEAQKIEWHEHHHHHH
# [4] = biological target: T1, Mouse IL-18BP (amino acids 31-194); experiment: SPR; KD ratio normalized to WT IL-18; lower end taken as mE8 (lowest ratio in Table 9)
# [5] = biological target: T1, Mouse IL-18BP (amino acids 31-194); experiment: SPR
# Description: Experiments were conducted using a Biacore T100 and carried out at 25° C. Biotinylated IL-18Rα or IL-18BP were immobilized onto a Biacore biotin capture chip (Series S CAP sensor chip, GE Healthcare) to yield an Rmax of ~50 RU (IL-18Rα) or ~10 RU (IL-18BP). Measurements were made with serial dilutions of the IL-18 variants in HEPES buffered Saline-P+ buffer (10 mM HEPES pH 7.4, 150 mM NaCl, 0.005% surfactant P20). The surface was regenerated by three 60-sec injections of regeneration buffer (¾ (v/v) 8 M guanidine hydrochloride with ¼ (v/v) 1 M sodium hydroxide). Experiments were performed in multiple channels simultaneously for increased observations. All data were analyzed with the Biacore T100 evaluation software version 2.0 with a 1:1 Langmuir binding model.
# As the human and mouse interspecies cross-reactivity of IL-18 for IL-18Rα is poor, murine equivalents of the DR-IL-18 variants that could be used for studies in mice were created. Similar to the approach taken for hIL-18 above, a combinatorial library of mIL-18 variants randomizing a similar set of mIL-18Rα/mIL-18BP contact residues (Table 3) was created, yielding a library of 4 × 10⁸ transformants. Directed evolution was performed on this library similar to how it was performed with the human IL-18 library; the selection strategy is summarized in FIG. 10A.
# [6] = biological target: T3, Human Interleukin-18 (mature form), wild-type (human, UniProt Q14116 37-193); experiment: cell-based or functional assay
# T3 sequence: B6 chain with R8K, K51M, K55S, A59G, Q60M, D105S, K110D, H111N, I153V
# [7] = biological target: B5; experiment: on-yeast binding isotherm, flow cytometry
binder,measurement,setting,value
B1,Kd,[1],14 µM
B2,Kd,[2],29 µM
B3,Kd,[3],1.7 nM
same,IL-18 BP:Ra Dissociation Constant Ratio,[4],9.3e+06
B4,Kd,[5],11 µM
B5,IC50 of recombinant IL-18BP on the IL-18 HEK-Blue reporter signal (hIL-18 fixed at 5 nM),[6],3 nM
B6,EC50,[7],> 1000 nM
B7,EC50,[7],> 1000 nM
